Molecular target: human Tie2 (on human Tie2-expressing cells) (human) (UniProt Q02763)
Test: cell-based or functional assay

Sequence of human Tie2 (on human Tie2-expressing cells) (human) (Q02763 23-1124): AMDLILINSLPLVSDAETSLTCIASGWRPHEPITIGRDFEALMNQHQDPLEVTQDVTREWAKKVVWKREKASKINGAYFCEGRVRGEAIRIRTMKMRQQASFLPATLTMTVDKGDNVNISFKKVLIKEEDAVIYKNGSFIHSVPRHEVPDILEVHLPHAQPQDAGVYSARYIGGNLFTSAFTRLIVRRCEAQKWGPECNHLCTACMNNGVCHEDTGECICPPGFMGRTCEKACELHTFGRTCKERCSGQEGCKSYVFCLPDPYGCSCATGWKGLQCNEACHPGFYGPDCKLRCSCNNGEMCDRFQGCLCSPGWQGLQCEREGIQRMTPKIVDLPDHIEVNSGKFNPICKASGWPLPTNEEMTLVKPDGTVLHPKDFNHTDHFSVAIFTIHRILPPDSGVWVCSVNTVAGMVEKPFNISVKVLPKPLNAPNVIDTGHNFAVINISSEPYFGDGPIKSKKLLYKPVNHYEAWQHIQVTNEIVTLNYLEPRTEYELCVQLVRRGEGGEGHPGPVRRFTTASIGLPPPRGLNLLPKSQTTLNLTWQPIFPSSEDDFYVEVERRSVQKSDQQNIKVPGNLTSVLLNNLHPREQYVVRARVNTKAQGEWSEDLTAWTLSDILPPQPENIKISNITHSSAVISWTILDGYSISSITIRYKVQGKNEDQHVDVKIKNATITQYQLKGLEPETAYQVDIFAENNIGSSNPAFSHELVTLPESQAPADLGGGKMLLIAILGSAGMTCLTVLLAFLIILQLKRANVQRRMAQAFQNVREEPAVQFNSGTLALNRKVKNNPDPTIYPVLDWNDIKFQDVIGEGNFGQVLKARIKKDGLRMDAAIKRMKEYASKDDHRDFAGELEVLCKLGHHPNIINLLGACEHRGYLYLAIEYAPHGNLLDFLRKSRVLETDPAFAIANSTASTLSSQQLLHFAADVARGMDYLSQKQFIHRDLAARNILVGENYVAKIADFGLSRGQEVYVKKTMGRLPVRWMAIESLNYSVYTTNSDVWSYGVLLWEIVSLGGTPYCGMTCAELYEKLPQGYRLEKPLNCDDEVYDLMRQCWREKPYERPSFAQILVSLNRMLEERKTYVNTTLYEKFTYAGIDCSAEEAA

Ang-2 (R&D, 623-AN-025) (from UniProt O15123 19-496) (ligand)
EC50 value of anti-apoptotic activity, human Tie2-expressing BaF3 cell: 0.0393 µg/mL
Maximum activity of anti-apoptotic activities (Ang-1 = 100%): 67%

Reference: patent US20160222130A1
